B1: Mothers against decapentaplegic homolog 4 (Homo sapiens), Q13485 (parent)
chain: MDNMSITNTPTSNDACLSIVHSLMCHRQGGESETFAKRAIESLVKKLKEKKDELDSLITAITTNGAHPSKCVTIQRTLDGRLQVAGRKGFPHVIYARLWRWPDLHKNELKHVKYCQYAFDLKCDSVCVNPYHYERVVSPGIDLSGLTLQSNAPSSMMVKDEYVHDFEGQPSLSTEGHSIQTIQHPPSNRASTETYSTPALLAPSESNATSTANFPNIPVASTSQPASILGGSHSEGLLQIASGPQPGQQQNGFTGQPATYHHNSTTTWTGSRTAPYTPNLPHHQNGHLQHHPPMPPHPGHYWPVHNELAFQPPISNHPAPEYWCSIAYFEMDVQVGETFKVPSSCPIVTVDGYVDPSGGDRFCLGQLSNVHRTEAIERARLHIGKGVQLECKGEGDVWVRCLSDHAVFVQSYYLDREAGRAPGDAVHKIYPSAYIKVFDLRQCHRQMQQQAATAQAAAAAQAAAVAGNIPGPGSVGGIAPAISLSAAAGIGVDDLRRLCILRMSFVKGWGPDYPRQSIKETPCWIEIHLHRALQLLDEVLHTMPIADPQPLD

Variants of: B1
Details: with smad3_human SMAD3, P84022

effect of a mutation on the interaction	Variant
disrupting interaction strength	G386D

Variants of: B1
Details: with smad1_human SMAD1, Q15797

effect of a mutation on the interaction	Variant
disrupting interaction strength	G386D

Variants of: B1
Details: with axin2_human AXIN2, Q9Y2T1
Chain of axin2_human AXIN2, Q9Y2T1 (Q9Y2T1 whole entry): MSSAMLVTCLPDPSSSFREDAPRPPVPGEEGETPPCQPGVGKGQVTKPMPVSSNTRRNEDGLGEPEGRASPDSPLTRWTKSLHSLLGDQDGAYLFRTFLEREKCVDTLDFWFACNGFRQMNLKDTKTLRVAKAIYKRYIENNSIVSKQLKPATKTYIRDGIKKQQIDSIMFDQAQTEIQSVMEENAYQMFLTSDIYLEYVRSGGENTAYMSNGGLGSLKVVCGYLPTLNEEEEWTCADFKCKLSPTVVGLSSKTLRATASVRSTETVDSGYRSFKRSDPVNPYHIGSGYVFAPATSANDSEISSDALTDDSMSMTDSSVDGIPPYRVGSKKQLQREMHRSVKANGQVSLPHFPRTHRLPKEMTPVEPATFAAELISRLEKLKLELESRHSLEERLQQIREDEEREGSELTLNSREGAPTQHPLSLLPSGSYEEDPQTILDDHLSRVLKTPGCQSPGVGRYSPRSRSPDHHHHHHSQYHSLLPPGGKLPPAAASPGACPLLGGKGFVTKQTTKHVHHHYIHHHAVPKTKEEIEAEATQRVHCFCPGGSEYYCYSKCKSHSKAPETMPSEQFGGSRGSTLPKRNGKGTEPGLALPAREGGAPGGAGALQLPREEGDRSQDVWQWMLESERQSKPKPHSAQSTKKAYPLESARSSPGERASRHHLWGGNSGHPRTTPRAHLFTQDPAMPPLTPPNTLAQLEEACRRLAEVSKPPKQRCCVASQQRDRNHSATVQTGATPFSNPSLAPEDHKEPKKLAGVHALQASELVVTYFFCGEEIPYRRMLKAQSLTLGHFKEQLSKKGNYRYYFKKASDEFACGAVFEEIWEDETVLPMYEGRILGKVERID

effect of a mutation on the interaction	Variant
causing an interaction	G386D

Variants of: B1
Details: with gsk3b_human GSK3B

effect of a mutation on the interaction	Variant
causing an interaction	G386D

Variants of: B1
Details: with agap2_human AGAP2, Q99490

effect of a mutation on the interaction	Variant
with no effect	G386D

Variants of: B1
Details: with ajuba_human AJUBA

effect of a mutation on the interaction	Variant
with no effect	G386D

Variants of: B1
Details: with akt1_human AKT1, P31749

effect of a mutation on the interaction	Variant
with no effect	G386D

Variants of: B1
Details: with akts1_human AKT1S1, Q96B36

effect of a mutation on the interaction	Variant
with no effect	G386D

Variants of: B1
Details: with alk_human ALK

effect of a mutation on the interaction	Variant
with no effect	G386D

Variants of: B1
Details: with aph1a_human APH1A

effect of a mutation on the interaction	Variant
with no effect	G386D

Variants of: B1
Details: with arnt_human ARNT

effect of a mutation on the interaction	Variant
with no effect	G386D

Variants of: B1
Details: with bakor_human ATG14, Q6ZNE5

effect of a mutation on the interaction	Variant
with no effect	G386D

Variants of: B1
Details: with atpb_human ATP5F1B

effect of a mutation on the interaction	Variant
with no effect	G386D

Variants of: B1
Details: with aurkb_human AURKB

effect of a mutation on the interaction	Variant
with no effect	G386D

Variants of: B1
Details: with axin2_human AXIN2, Q9Y2T1
Remark: another data set of the same source

effect of a mutation on the interaction	Variant
with no effect	G386D

Variants of: B1
Details: with ufo_human AXL

effect of a mutation on the interaction	Variant
with no effect	G386D

Variants of: B1
Details: with za2g_human AZGP1, P25311

effect of a mutation on the interaction	Variant
with no effect	G386D

Variants of: B1
Details: with b2mg_human B2M

effect of a mutation on the interaction	Variant
with no effect	G386D

Variants of: B1
Details: with bap1_human BAP1, Q92560

effect of a mutation on the interaction	Variant
with no effect	G386D

Variants of: B1
Details: with becn1_human BECN1, Q14457

effect of a mutation on the interaction	Variant
with no effect	G386D

Variants of: B1
Details: with birc2_human BIRC2, Q13490
Chain of birc2_human BIRC2, Q13490 (Q13490 whole entry): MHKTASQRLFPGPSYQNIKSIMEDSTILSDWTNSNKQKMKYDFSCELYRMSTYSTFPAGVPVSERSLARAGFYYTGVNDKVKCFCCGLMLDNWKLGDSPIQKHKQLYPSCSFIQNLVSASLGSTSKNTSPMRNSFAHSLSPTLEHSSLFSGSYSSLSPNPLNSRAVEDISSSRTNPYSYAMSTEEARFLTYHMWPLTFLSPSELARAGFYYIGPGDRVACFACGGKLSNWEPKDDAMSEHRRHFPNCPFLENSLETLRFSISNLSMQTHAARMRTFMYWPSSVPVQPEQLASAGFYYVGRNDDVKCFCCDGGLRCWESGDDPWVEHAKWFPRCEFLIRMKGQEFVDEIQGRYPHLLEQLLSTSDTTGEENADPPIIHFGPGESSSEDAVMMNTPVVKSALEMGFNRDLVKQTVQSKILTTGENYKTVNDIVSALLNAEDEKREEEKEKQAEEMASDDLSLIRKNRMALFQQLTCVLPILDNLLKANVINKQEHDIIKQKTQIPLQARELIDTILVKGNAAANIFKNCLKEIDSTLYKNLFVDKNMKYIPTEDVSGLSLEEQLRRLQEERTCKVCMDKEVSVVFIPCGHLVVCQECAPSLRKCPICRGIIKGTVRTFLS

effect of a mutation on the interaction	Variant
with no effect	G386D

Variants of: B1
Details: with braf_human BRAF

effect of a mutation on the interaction	Variant
with no effect	G386D

Variants of: B1
Details: with baba2_human BABAM2, Q9NXR7

effect of a mutation on the interaction	Variant
with no effect	G386D

Variants of: B1
Details: with btg1_human BTG1, P62324

effect of a mutation on the interaction	Variant
with no effect	G386D

Variants of: B1
Details: with btk_human BTK

effect of a mutation on the interaction	Variant
with no effect	G386D

Variants of: B1
Details: with cbl_human CBL

effect of a mutation on the interaction	Variant
with no effect	G386D

Variants of: B1
Details: with cblb_human CBLB

effect of a mutation on the interaction	Variant
with no effect	G386D

Variants of: B1
Details: with ccnd1_human CCND1, P24385

effect of a mutation on the interaction	Variant
with no effect	G386D

Variants of: B1
Details: with ccnd2_human CCND2, P30279

effect of a mutation on the interaction	Variant
with no effect	G386D

Variants of: B1
Details: with ccnd3_human CCND3, P30281

effect of a mutation on the interaction	Variant
with no effect	G386D

Variants of: B1
Details: with cd44_human CD44, P16070

effect of a mutation on the interaction	Variant
with no effect	G386D

Variants of: B1
Details: with cd79b_human CD79B

effect of a mutation on the interaction	Variant
with no effect	G386D

Variants of: B1
Details: with cdc27_human CDC27, P30260

effect of a mutation on the interaction	Variant
with no effect	G386D

Variants of: B1
Details: with cdk4_human CDK4, P11802

effect of a mutation on the interaction	Variant
with no effect	G386D

Variants of: B1
Details: with cdk6_human CDK6, Q00534
Chain of cdk6_human CDK6, Q00534 (Q00534 whole entry): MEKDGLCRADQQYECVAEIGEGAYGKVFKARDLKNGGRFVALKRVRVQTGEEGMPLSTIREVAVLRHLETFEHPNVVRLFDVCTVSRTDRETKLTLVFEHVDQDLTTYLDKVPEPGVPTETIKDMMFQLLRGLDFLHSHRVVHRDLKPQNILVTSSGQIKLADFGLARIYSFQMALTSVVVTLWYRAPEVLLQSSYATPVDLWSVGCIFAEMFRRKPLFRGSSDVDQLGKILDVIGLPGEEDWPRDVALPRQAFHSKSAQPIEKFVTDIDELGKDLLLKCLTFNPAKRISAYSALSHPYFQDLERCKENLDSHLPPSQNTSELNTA

effect of a mutation on the interaction	Variant
with no effect	G386D

Variants of: B1
Details: with cdn2b_human CDKN2B

effect of a mutation on the interaction	Variant
with no effect	G386D

Variants of: B1
Details: with cdn2c_human CDKN2C

effect of a mutation on the interaction	Variant
with no effect	G386D

Variants of: B1
Details: with cebpa_human CEBPA

effect of a mutation on the interaction	Variant
with no effect	G386D

Variants of: B1
Details: with chd1l_human CHD1L

effect of a mutation on the interaction	Variant
with no effect	G386D

Variants of: B1
Details: with chd2_human CHD2, O14647

effect of a mutation on the interaction	Variant
with no effect	G386D

Variants of: B1
Details: with ch3l1_human CHI3L1, P36222
Chain of ch3l1_human CHI3L1, P36222 (P36222 whole entry): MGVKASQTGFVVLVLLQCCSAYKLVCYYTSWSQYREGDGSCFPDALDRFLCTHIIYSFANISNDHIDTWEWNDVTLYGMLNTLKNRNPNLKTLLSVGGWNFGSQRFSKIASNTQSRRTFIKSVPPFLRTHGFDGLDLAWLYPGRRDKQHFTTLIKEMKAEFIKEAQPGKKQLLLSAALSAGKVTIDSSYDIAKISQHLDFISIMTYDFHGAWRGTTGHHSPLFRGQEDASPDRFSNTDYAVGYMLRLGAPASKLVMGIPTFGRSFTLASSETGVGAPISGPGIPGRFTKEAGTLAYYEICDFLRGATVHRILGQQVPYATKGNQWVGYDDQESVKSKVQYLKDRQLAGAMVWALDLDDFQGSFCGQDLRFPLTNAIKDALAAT

effect of a mutation on the interaction	Variant
with no effect	G386D

Variants of: B1
Details: with csf1r_human CSF1R

effect of a mutation on the interaction	Variant
with no effect	G386D

Variants of: B1
Details: with ctna1_human CTNNA1, P35221

effect of a mutation on the interaction	Variant
with no effect	G386D

Variants of: B1
Details: with ctnb1_human CTNNB1, P35222

effect of a mutation on the interaction	Variant
with no effect	G386D

Variants of: B1
Details: with cul3_human CUL3, Q13618

effect of a mutation on the interaction	Variant
with no effect	G386D

Variants of: B1
Details: with dicer_human DICER1, Q9UPY3

effect of a mutation on the interaction	Variant
with no effect	G386D

Variants of: B1
Details: with dll3_human DLL3, Q9NYJ7
Chain of dll3_human DLL3, Q9NYJ7 (Q9NYJ7 whole entry): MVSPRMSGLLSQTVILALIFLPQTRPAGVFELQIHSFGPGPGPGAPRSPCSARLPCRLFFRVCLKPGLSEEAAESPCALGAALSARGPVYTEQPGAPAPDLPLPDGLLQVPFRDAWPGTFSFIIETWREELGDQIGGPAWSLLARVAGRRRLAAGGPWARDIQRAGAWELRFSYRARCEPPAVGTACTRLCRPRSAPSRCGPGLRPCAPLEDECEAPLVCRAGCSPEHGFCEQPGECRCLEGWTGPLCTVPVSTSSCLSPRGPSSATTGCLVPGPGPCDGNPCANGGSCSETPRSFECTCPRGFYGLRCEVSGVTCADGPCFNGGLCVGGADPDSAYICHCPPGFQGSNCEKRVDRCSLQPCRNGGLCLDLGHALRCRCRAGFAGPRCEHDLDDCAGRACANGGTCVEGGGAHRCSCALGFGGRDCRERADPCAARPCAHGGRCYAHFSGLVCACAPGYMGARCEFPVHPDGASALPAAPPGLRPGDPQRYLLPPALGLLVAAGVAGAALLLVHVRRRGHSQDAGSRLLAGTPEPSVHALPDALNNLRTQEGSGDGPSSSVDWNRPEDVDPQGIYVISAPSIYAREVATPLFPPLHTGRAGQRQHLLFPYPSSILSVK

effect of a mutation on the interaction	Variant
with no effect	G386D

Variants of: B1
Details: with duox2_human DUOX2, Q9NRD8

effect of a mutation on the interaction	Variant
with no effect	G386D

Variants of: B1
Details: with e2f1_human E2F1, Q01094

effect of a mutation on the interaction	Variant
with no effect	G386D

Variants of: B1
Details: with e2f2_human E2F2, Q14209

effect of a mutation on the interaction	Variant
with no effect	G386D

Variants of: B1
Details: with e2f4_human E2F4, Q16254

effect of a mutation on the interaction	Variant
with no effect	G386D

Variants of: B1
Details: with e2f5_human E2F5, Q15329
Chain of e2f5_human E2F5, Q15329 (Q15329 whole entry): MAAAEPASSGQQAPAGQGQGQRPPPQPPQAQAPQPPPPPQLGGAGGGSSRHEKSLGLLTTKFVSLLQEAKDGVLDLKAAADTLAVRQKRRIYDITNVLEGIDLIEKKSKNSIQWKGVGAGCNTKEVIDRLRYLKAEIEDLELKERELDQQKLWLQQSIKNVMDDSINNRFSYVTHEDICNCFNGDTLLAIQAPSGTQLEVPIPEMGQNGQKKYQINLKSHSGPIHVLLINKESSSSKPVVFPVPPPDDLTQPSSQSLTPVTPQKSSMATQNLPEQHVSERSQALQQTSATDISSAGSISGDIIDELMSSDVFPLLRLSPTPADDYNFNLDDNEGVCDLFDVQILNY

effect of a mutation on the interaction	Variant
with no effect	G386D

Variants of: B1
Details: with e2f8_human E2F8, A0AVK6

effect of a mutation on the interaction	Variant
with no effect	G386D

Variants of: B1
Details: with if4e_human EIF4E

effect of a mutation on the interaction	Variant
with no effect	G386D

Variants of: B1
Details: with epha2_human EPHA2, P29317

effect of a mutation on the interaction	Variant
with no effect	G386D

Variants of: B1
Details: with epha7_human EPHA7, Q15375
Chain of epha7_human EPHA7, Q15375 (Q15375 whole entry, looked up): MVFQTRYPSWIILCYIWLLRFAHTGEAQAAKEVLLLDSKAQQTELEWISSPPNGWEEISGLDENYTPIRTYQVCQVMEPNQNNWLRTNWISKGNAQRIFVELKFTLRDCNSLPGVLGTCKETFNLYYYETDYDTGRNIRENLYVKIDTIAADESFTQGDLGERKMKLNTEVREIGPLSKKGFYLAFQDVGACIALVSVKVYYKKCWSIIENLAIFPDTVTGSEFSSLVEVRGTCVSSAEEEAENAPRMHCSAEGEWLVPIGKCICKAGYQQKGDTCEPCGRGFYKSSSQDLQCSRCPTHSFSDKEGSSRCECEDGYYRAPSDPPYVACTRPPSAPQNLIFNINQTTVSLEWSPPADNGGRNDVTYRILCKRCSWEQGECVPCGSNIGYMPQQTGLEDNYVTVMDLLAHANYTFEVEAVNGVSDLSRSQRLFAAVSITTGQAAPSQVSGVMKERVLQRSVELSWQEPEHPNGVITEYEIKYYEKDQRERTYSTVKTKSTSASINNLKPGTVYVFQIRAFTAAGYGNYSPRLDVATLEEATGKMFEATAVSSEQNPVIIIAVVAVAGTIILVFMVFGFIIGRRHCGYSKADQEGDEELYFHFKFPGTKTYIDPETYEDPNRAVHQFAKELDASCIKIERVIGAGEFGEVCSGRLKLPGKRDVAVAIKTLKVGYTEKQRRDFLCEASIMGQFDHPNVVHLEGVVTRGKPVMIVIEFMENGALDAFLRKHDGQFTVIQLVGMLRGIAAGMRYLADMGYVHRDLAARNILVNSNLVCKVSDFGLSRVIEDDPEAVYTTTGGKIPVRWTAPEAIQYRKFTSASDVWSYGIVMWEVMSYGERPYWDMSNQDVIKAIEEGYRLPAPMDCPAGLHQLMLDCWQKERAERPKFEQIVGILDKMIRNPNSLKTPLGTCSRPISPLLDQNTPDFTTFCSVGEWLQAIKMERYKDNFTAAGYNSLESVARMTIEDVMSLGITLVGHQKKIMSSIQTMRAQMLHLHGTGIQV

effect of a mutation on the interaction	Variant
with no effect	G386D

Variants of: B1
Details: with ephb1_human EPHB1, P54762

effect of a mutation on the interaction	Variant
with no effect	G386D

Variants of: B1
Details: with erbb3_human ERBB3, P21860

effect of a mutation on the interaction	Variant
with no effect	G386D

Variants of: B1
Details: with erbb4_human ERBB4, Q15303

effect of a mutation on the interaction	Variant
with no effect	G386D

Variants of: B1
Details: with esr1_human ESR1, P03372
Chain of esr1_human ESR1, P03372 (P03372 whole entry): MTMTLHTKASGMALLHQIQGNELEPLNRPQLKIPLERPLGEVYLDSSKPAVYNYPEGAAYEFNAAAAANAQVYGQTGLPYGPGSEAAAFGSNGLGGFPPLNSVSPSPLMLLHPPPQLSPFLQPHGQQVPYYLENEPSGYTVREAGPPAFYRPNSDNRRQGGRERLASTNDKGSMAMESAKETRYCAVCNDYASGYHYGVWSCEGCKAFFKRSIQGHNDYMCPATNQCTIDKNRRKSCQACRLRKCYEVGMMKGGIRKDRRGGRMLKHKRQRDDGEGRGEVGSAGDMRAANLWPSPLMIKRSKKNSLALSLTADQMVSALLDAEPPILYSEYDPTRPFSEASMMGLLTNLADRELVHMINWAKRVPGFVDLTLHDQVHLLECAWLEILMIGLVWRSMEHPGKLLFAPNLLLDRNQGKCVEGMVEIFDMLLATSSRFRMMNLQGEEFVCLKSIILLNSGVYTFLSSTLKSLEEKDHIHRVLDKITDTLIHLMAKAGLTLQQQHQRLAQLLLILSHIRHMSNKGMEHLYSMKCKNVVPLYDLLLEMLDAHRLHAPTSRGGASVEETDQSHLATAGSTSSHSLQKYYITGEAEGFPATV

effect of a mutation on the interaction	Variant
with no effect	G386D
